The data set deals with phosphoglucoisomerase (PGI) activity. Briefly: PGI activity of TPS activator. The following applies: 50 mM HEPES/KOH pH 7.0, 5 mM MgCl2, 5 mM F6P; stored several months at 0° C. The format is biochemical, S. cerevisiae. As for the experimental part: The PGI activity of a sample of TPS activator that had been stored for several months at 0° C. was measured in 50 mM HEPES/KOH pH 7.0, 5 mM MgCl2, 5 mM F6P and 0.4 mg/ml NADP. A specific activity of 190 U/mg was found.

B1: TPS activator: TPS activator from S. cerevisiae, identical to yeast phosphoglucoisomerase (protein, UniProt P12709 2-554, looked up)
Glucose-6-phosphate isomerase: SNNSFTNFKLATELPAWSKLQKIYESQGKTLSVKQEFQKDAKRFEKLNKTFTNYDGSKILFDYSKNLVNDEIIAALIELAKEANVTGLRDAMFKGEHINSTEDRAVYHVALRNRANKPMYVDGVNVAPEVDSVLKHMKEFSEQVRSGEWKGYTGKKITDVVNIGIGGSDLGPVMVTEALKHYAGVLDVHFVSNIDGTHIAETLKVVDPETTLFLIASKTFTTAETITNANTAKNWFLSKTGNDPSHIAKHFAALSTNETEVAKFGIDTKNMFGFESWVGGRYSVWSAIGLSVALYIGYDNFEAFLKGAEAVDNHFTQTPLEDNIPLLGGLLSVWYNNFFGAQTHLVAPFDQYLHRFPAYLQQLSMESNGKSVTRGNVFTDYSTGSILFGEPATNAQHSFFQLVHQGTKLIPSDFILAAQSHNPIENKLHQKMLASNFFAQAEALMVGKDEEQVKAEGATGGLVPHKVFSGNRPTTSILAQKITPATLGALIAYYEHVTFTEGAIWNINSFDQWGVELGKVLAKVIGKELDNSSTISTHDASTNGLINQFKEWM
In turn, B1 registered a PGI specific activity of 190 U/mg.

These data come from US6323001A, “Increasing the trehalose content of organisms by transforming them with combinations of the structural genes for trehalose synthase” (BTG International Ltd., priority 1994, dated 2001).
